Test results published in the supplement of paper PMC10567573.

B1: C10orf62 (parent)
chain: RALEEVEMKLQKNFLTQRENTIAG

Variants of: B1
Experiment: protein stability index of a GFP-peptide fusion (GPS, HEK-293T) (PSI 1-6); higher = more stable
Details: c terminus: a fixed tail appended
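Further: lentivirally expressed fusions sorted by FACS into six bins by GFP to DsRed ratio, PSI derived from sequencing read proportions per bin multiplied by bin number.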

Row | Variant | protein stability index
1 | RALEEVEMKLHKNFLTQRENTIAG [Q11H] | 2.94
2 | RALEEVEMKLDKNFLTQRENTIAG [Q11D] | 4.43
3 | RALEEVEMKLAKNFLTQRENTIAG [Q11A] | 3.31
4 | RALEEVEMKLFKNFLTQRENTIAG [Q11F] | 2.44
5 | RALEEVEMKLCKNFLTQRENTIAG [Q11C] | 3.52
6 | RALEEVEMKLEKNFLTQRENTIAG [Q11E] | 4.28
7 | RALREVEMKLQKNFLTQRENTIAG [E4R] | 4
8 | RALAEVEMKLQKNFLTQRENTIAG [E4A] | 2.9
9 | RALIEVEMKLQKNFLTQRENTIAG [E4I] | 1.99
10 | RALPEVEMKLQKNFLTQRENTIAG [E4P] | 4.36
11 | RALHEVEMKLQKNFLTQRENTIAG [E4H] | 3.18
12 | RALFEVEMKLQKNFLTQRENTIAG [E4F] | 3.13
13 | RALYEVEMKLQKNFLTQRENTIAG [E4Y] | 2.56
14 | RALQEVEMKLQKNFLTQRENTIAG [E4Q] | 2.89
15 | RALTEVEMKLQKNFLTQRENTIAG [E4T] | 3.72
16 | RALCEVEMKLQKNFLTQRENTIAG [E4C] | 3.31
17 | RALLEVEMKLQKNFLTQRENTIAG [E4L] | 2.31
18 | RALSEVEMKLQKNFLTQRENTIAG [E4S] | 3.64
19 | RALMEVEMKLQKNFLTQRENTIAG [E4M] | 2.63
20 | RALDEVEMKLQKNFLTQRENTIAG [E4D] | 3.44
21 | RALWEVEMKLQKNFLTQRENTIAG [E4W] | 1.92
22 | RALVEVEMKLQKNFLTQRENTIAG [E4V] | 2.36
23 | RALNEVEMKLQKNFLTQRENTIAG [E4N] | 3.29
24 | RALGEVEMKLQKNFLTQRENTIAG [E4G] | 4.05

Row | Variant | protein stability index
25 | RALKEVEMKLQKNFLTQRENTIAG [E4K] | 3.36
26 | WALEEVEMKLQKNFLTQRENTIAG [R1W] | 3.15
27 | NALEEVEMKLQKNFLTQRENTIAG [R1N] | 4.37
28 | LALEEVEMKLQKNFLTQRENTIAG [R1L] | 2.54
29 | QALEEVEMKLQKNFLTQRENTIAG [R1Q] | 3.5
30 | PALEEVEMKLQKNFLTQRENTIAG [R1P] | 4.55
31 | KALEEVEMKLQKNFLTQRENTIAG [R1K] | 3.6
32 | TALEEVEMKLQKNFLTQRENTIAG [R1T] | 4.32
33 | IALEEVEMKLQKNFLTQRENTIAG [R1I] | 2.91
34 | MALEEVEMKLQKNFLTQRENTIAG [R1M] | 3.33
35 | SALEEVEMKLQKNFLTQRENTIAG [R1S] | 3.85
36 | VALEEVEMKLQKNFLTQRENTIAG [R1V] | 3.1
37 | YALEEVEMKLQKNFLTQRENTIAG [R1Y] | 3.29
38 | RALEEVEQKLQKNFLTQRENTIAG [M8Q] | 4.12
39 | RALEEVENKLQKNFLTQRENTIAG [M8N] | 3.75
40 | RALEEVEEKLQKNFLTQRENTIAG [M8E] | 4.92
41 | RALEEVEWKLQKNFLTQRENTIAG [M8W] | 2.81
42 | RALEEVEGKLQKNFLTQRENTIAG [M8G] | 4.64
43 | RALEEVEYKLQKNFLTQRENTIAG [M8Y] | 3.6
44 | RALEEVEKKLQKNFLTQRENTIAG [M8K] | 2.63
45 | RALEEVEAKLQKNFLTQRENTIAG [M8A] | 4.09
46 | RALEEVEPKLQKNFLTQRENTIAG [M8P] | 3.94
47 | RALEEVECKLQKNFLTQRENTIAG [M8C] | 3.58
48 | RALEEVEIKLQKNFLTQRENTIAG [M8I] | 3.26

Row | Variant | protein stability index
49 | RALEEVETKLQKNFLTQRENTIAG [M8T] | 4.23
50 | RALEEVEVKLQKNFLTQRENTIAG [M8V] | 3.35
51 | RALEEVEFKLQKNFLTQRENTIAG [M8F] | 3.65
52 | RALEEVEDKLQKNFLTQRENTIAG [M8D] | 4.6
53 | RALEEVERKLQKNFLTQRENTIAG [M8R] | 3.38
54 | RALEEVESKLQKNFLTQRENTIAG [M8S] | 4.08
55 | RALEEVELKLQKNFLTQRENTIAG [M8L] | 3.3
56 | RALEEVEHKLQKNFLTQRENTIAG [M8H] | 4.23
57 | RALEEMEMKLQKNFLTQRENTIAG [V6M] | 3.23
58 | RALEEWEMKLQKNFLTQRENTIAG [V6W] | 3.76
59 | RALEESEMKLQKNFLTQRENTIAG [V6S] | 4.27
60 | RALEEFEMKLQKNFLTQRENTIAG [V6F] | 3.76
61 | RALEEIEMKLQKNFLTQRENTIAG [V6I] | 2.52
62 | RALEEKEMKLQKNFLTQRENTIAG [V6K] | 4.43
63 | RALEEHEMKLQKNFLTQRENTIAG [V6H] | 4.58
64 | RALEELEMKLQKNFLTQRENTIAG [V6L] | 3.52
65 | RALEETEMKLQKNFLTQRENTIAG [V6T] | 3.73
66 | RALEEGEMKLQKNFLTQRENTIAG [V6G] | 4.3
67 | RALEEAEMKLQKNFLTQRENTIAG [V6A] | 3.19
68 | RALEEQEMKLQKNFLTQRENTIAG [V6Q] | 3.93
69 | RALEEPEMKLQKNFLTQRENTIAG [V6P] | 4.17
70 | RALEECEMKLQKNFLTQRENTIAG [V6C] | 3.56
71 | RALEENEMKLQKNFLTQRENTIAG [V6N] | 4.33
72 | RALEEEEMKLQKNFLTQRENTIAG [V6E] | 4.75

Row | Variant | protein stability index
73 | RALEEDEMKLQKNFLTQRENTIAG [V6D] | 4.17
74 | RALEEYEMKLQKNFLTQRENTIAG [V6Y] | 4.03
75 | RALEEREMKLQKNFLTQRENTIAG [V6R] | 4.13
76 | RILEEVEMKLQKNFLTQRENTIAG [A2I] | 2.66
77 | RCLEEVEMKLQKNFLTQRENTIAG [A2C] | 3.27
78 | RTLEEVEMKLQKNFLTQRENTIAG [A2T] | 3.83
79 | RWLEEVEMKLQKNFLTQRENTIAG [A2W] | 2.29
80 | RELEEVEMKLQKNFLTQRENTIAG [A2E] | 4.41
81 | RGLEEVEMKLQKNFLTQRENTIAG [A2G] | 4.1
82 | RDLEEVEMKLQKNFLTQRENTIAG [A2D] | 4.1
83 | RNLEEVEMKLQKNFLTQRENTIAG [A2N] | 3.89
84 | RMLEEVEMKLQKNFLTQRENTIAG [A2M] | 2.6
85 | RFLEEVEMKLQKNFLTQRENTIAG [A2F] | 2.54
86 | RPLEEVEMKLQKNFLTQRENTIAG [A2P] | 4.4
87 | RKLEEVEMKLQKNFLTQRENTIAG [A2K] | 3.7
88 | RRLEEVEMKLQKNFLTQRENTIAG [A2R] | 3.61
89 | RQLEEVEMKLQKNFLTQRENTIAG [A2Q] | 4.32
90 | RYLEEVEMKLQKNFLTQRENTIAG [A2Y] | 2.98
91 | RHLEEVEMKLQKNFLTQRENTIAG [A2H] | 3.55
92 | RLLEEVEMKLQKNFLTQRENTIAG [A2L] | 2.61
93 | RVLEEVEMKLQKNFLTQRENTIAG [A2V] | 2.96
94 | RSLEEVEMKLQKNFLTQRENTIAG [A2S] | 3.9
